Reference: paper PMC6336354, “A transient helix in the disordered region of dynein light intermediate chain links the motor to structurally diverse adaptors for cargo transport” (PLoS Biology, 2019)

Legend:
Details in all cases: both partners purified
[1] = biological target: T1, SPDL1(2–359)::Strep-tag II (human, UniProt Q96EA4 2-359); assay: MST; 10 nM LIC1(388–523)::6xHis labelled with Red-Tris NTA dye; 16 two-fold dilutions of adaptor::Strep-tag II; 25°C
T1 construct: human Spindly (SPDL1), N-terminal region, residues 2-359; also called Spindly; source: E. coli BL21, purified (Ni-NTA, TEV cleavage, Strep-Tactin; dialysis or SEC); not shown: 6xHis::MBP, N-terminal, cleaved; Strep-tag II (after linker GSGSGR), C-terminal, kept
T1 sequence (looked up): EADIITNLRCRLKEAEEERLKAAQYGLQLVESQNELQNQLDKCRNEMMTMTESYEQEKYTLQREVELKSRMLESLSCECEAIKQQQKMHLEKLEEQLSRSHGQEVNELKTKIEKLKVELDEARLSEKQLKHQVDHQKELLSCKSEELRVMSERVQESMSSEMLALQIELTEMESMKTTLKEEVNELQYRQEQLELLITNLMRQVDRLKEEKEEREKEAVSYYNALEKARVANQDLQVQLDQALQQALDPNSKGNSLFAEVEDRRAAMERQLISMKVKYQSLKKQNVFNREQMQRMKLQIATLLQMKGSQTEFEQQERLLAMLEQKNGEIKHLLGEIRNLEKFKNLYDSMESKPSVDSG

[2] = biological target: T2, BICD2(2–422)::Strep-tag II (human, UniProt Q8TD16 2-422); assay: as above
T2 construct: human bicaudal D homolog 2 (BICD2), N-terminal region, residues 2-422; also called bicaudal D homolog 2; source: E. coli BL21, purified (Ni-NTA, TEV cleavage, Strep-Tactin; dialysis or SEC); not shown: 6xHis::MBP, N-terminal, cleaved; Strep-tag II (after linker GSGSGR), C-terminal, kept
T2 sequence (Q8TD16 2-422): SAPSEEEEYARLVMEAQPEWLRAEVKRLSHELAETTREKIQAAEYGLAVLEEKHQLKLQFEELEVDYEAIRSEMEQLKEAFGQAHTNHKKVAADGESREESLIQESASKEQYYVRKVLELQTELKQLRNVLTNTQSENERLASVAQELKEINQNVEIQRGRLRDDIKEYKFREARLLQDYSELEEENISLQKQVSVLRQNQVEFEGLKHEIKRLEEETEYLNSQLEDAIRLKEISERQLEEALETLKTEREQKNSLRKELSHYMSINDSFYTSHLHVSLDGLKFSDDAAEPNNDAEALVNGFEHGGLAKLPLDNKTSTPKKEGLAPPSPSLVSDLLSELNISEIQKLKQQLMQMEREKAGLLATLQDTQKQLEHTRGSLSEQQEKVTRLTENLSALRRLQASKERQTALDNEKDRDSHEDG

[3] = biological target: T3, HOOK3(2–239)::Strep-tag II (human, UniProt Q86VS8 2-239); assay: as above
T3 construct: human Hook homolog 3 (HOOK3), residues 2-239; used for NMR, SPR and MST; also called Hook homolog 3; source: E. coli Rosetta, purified (Ni-NTA, TEV cleavage, Strep-Tactin; dialysis or SEC); not shown: 6xHis::MBP, N-terminal, cleaved; Strep-tag II (after linker GSGSGR), C-terminal, kept
T3 sequence (looked up): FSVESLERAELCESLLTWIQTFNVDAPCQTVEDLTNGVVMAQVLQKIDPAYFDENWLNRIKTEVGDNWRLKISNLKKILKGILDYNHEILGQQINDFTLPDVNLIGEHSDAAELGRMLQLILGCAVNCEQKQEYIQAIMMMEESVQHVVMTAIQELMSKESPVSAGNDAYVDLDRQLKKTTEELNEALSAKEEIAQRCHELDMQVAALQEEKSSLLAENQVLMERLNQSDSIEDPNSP

[4] = biological target: T1, SPDL1(2–359)::Strep-tag II; assay: SPR; Biacore 3000; His-tagged LIC1 immobilised on NTA chip (200–300 RU), Strep-tagged adaptor as analyte; HBS-P (10 mM HEPES, 150 mM NaCl, 0.005% surfactant P20, pH 7.4)
[5] = biological target: T2, BICD2(2–422)::Strep-tag II; assay: as above
[6] = biological target: T3, HOOK3(2–239)::Strep-tag II; assay: as above

Kd [1]: 13.1 µM | Kd [3]: 4 µM | Kd [4]: 5.7 µM | Kd [6]: 1.9 µM
B1: LIC1(388–523)::6xHis (domain or fragment, human)
chain: WPTAAGRPVDASPRVPGGSPRTPNRSVSSNVASVSPIPAGSKKIDPNMKAGATSEGVLANFFNSLLSKKTGSPGGPGVSGGSPAGGAGGGSSGLPPSTKKSGQKPVLDVHAELDRITRKPVTVSPTTPTSPTEGEAS
notes: single N-terminal tryptophan added in the construct; 15N-labelled for the NMR titration; labelled with Red-Tris NTA dye on the His tag for MST; also called LIC1-C; LIC1-C::6xHis; source: E. coli BL21, purified (GSTrap, PreScission cleavage, second GSTrap, SEC Superdex 75); not shown: GST, N-terminal, cleaved; 6xHis (after linker GSGSG), C-terminal, kept
Kd [2]: 6 µM | Kd [5]: 1.07 µM
